Assay results as given in the DeepSol protein solubility set.

Experiment: soluble on expression in E. coli; label from the status in PepcDB or PDB records

Row | Sequence | soluble on expression in E. coli
1 | MLSPDNVFIAIKPVDMRRGIDSLTQYIQDELRSTWHEGAAFVFVNKARSRIKVLRWDKHGVWLCTRRLHKGSFRWPRANDAAWHLTPDEFNWLIAGVDWQQVKGHDLTKWVWQNEPELRPENTQNTLLTQ | not soluble
2 | MAHHHHHHMQRDVYASLIKKRHKQMVPLLIHQVSGDITRENIFDEVFHGYKLRRIVLMTHMAATPATLPRLPRDIIVSDFDKLKAIHQPHFHYKLLPLLCTDFEAFSALQGICASANSPFTIEDRKDPQGLTHRLSNGCSERQALCEFFDPHIAPAEKLVPVFSRKLPISAVVFDGLLLKQNYPKVAALLTVHEAASEKSIIERAIMRDFFVSPLYTKVSGNSDVAQSLRLVHHCTHFMALKRAVGSDAPSRQSLMRLAAEKKLFMYEKIGDEYQFVH | soluble
3 | MGSDKIHHHHHHMSHIIKIFPSNIEFSGREDESILDAALSAGIHLEHSCKAGDCGICESDLLAGEVVDSKGNIFGQGDKILTCCCKPKTALELNAHFFPELAGQTKKIVPCKVNSAVLVSGDVMTLKLRTPPTAKIGFLPGQYINLHYKGVTRSYSIANSDESNGIELHVRNVPNGQMSSLIFGELQENTLMRIEGPCGTFFIRESDRPIIFLAGGTGFAPVKSMVEHLIQGKCRREIYIYWGMQYSKDFYSALPQQWSEQHDNVHYIPVVSGDDAEWGGRKGFVHHAVMDDFDSLEFFDIYACGSPVMIDASKKDFMMKNLSVEHFYSDAFTASNNIEDNL | not soluble
4 | KDFVSDVLPTIAECYHHLGQEDELVEFLRACIDKKAGVSAELMLAQLVAHHESVGAAQELLTKQLLKNPTMKGFYRLIDYHIAEAEDGRAKDSLSTLQAMVGEQLKVKPHYRCRKCGFSTHSLYWHCPSCKGWGTIKPIRGLDGE | not soluble
5 | MKEENVGDFTLHYGVFEEVEPEELRNLADMLRQRTKKDVVFIASRKGDKINFVIGVSKEISDKVNAKEVIREVGKVLKGGGGGRADLAQGGGKAPDKFPEAVKLLKEILSG | soluble
6 | STQTSRVTLVGEMLPAYNEILTPEALSFLKELHENFNERRIELLQKRMKKQQKIDAGEFPKFLEETKRIREADWTIAKLPKDLEDRRVEITGPVDRKMVINALNSGAHLFMADFEDSNSPTWENAIEGQINLRDAVKGTISHKNENGKEYRLNSKTAVLIVRPRGWHLEEKHMQVDGKNMSGSLVDFGLYFFHNAKALLEKGSGPYFYLPKMESYLEARLWNDVFVFAQKYIGIPNGTIKATVLLETIHASFEMDEILYELKDHSAGLNCGRWDYIFSFLKAFRNHNEFLLPDRAQVTMTAPFMRAYSLKVIQTCHRRNAPAIGGMAAQIPIKNNPEANEAAFEKVRADKEREALDGHDGTWVAHPGLVPVAMEVFNHIMKTPNQIFRKREEIHVTEKDLLEVPVGTITEEGLRMNISVGIQYIASWLSGRGAAPIYNLMEDAATAEISRAQVWQWIRHEGGKLNDGRNITLELMEELKEEELAKIEREIGKEAFKKGRFQEATTLFTNLVRNDEFVPFLTLPGYEIL | soluble
7 | MRPNYTVSSSGTNKGSVLAVCNTTYYKSNKLISKNEITLYKGFRSLSTNHKIETIVHEFGHGFGLGHVKTKNAIMLDKGFINKTKPQTDDFNGIKALYKLEHHHHHH | not soluble
8 | MKKIAIFAKVHDPRCQGVASELIAWLEARGLIPLVEAHLARHLGGRQGIVPEDIPVLADMAVVLGGDGTLISAARLIGSRQIPILGVNLGSLGFLTEITLDELYPVLESCLSGDFQVTERMMLTVSVERNGEEICSHRVLNDVVINKGALARIIDMETEVSGIRLTTYKADGLIISTPTGSTGYSLSANGPIVHPSLECITITPICPHTLTNRPIVLESSSGVTVWLRSKDEDVYLTLDGQVGMELKCGDAVHVRRAAHRTRLVMSRSRNYFEVLRTKLKWGERAAALEHHHHHH | soluble
9 | AAEKTGKCRVVTTTGTADWSVRESFNNYLEGPIANGAAYKYHGGIEVRDGVETTGTKSAREFTWPVLGSEEGAVKLGGGVHWTGHNHYSGDDESQAPDNFILDLDFSNPTVKFDGNEGTLLVDFKSREFVDTKTVADFLTGTQAELATITFDEPIDLTQENVTVTGQTKLTATGVDVMGTFYPEGEALAPITLNLTN | not soluble
10 | MVLAPFFEKAPSLIIAPDGSVLFECICNANPQPTVKWFLKDKELTGDRYVSKIKKMVGKFTVTLHIKNPTQEDQGVYKVTATNTHGSHSVEQQYIYKCTGKEVFKTLD | soluble
